According to patent US9994845:

Target: fluorescently-labeled taxol-stabilized microtubules

B1: purified recombinant full-length Kif19 (protein)
chain: MKDSGDSKDQQLMVALRVRPISVAELEEGATLIAHKVDEQMVVLMDPMEDPDDILRAHRSREKSYLFDVAFDFTATQEMVYQATTKSLIEGVISGYNATVFAYGPTGCGKTYTMLGTDQEPGIYVQTLNDLFRAIEETSNDMEYEVSMSYLEIYNEMIRDLLNPSLGYLELREDSKGVIQVAGITEVSTINAKEIMQLLMKGNRQRTQEPTAANQTSSRSHAVLQVTVRQRSRVKNILQEVRQGRLFMIDLAGSERASQTQNRGQRMKEGAHINRSLLALGNCINALSDKGSNKYINYRDSKLTRLLKDSLGGNSRTVMIAHISPASSAFEESRNTLTYAGRAKNIKTRVKQNLLNVSYHIAQYTSIIADLRGEIQRLKRKIDEQTGRGQARGRQDRGDIRHIQAEVQLHSGQGEKAGMGQLREQLASAFQEQMDVRRRLLELENRAMEVQIDTSRHLLTIAGWKHEKSRRALKWREEQRKECYAKDDSEKDSDTGDDQPDILEPPEVAAARESIAALVDEQKQLRKQKLALEQRCRELRARGRRLEETLPRRIGSEEQREVLSLLCRVHELEVENTEMQSHALLRDGALRHRHEAVRRLEQHRSLCDEIIQGQRQIIDDYNLAVPQRLEELYEVYLRELEEGSLEQATIMDQVASRALQDSSLPKITPAGTSLTPDSDLESVKTLSSDAQHLQNSALPPLSTESEGHHVFKAGTGAWQAKSSSVPTPPPIQLGSLVTQEAPAQDSLGSWINSSPDSSENLSEIPLSHKERKEILTGTKCIWVKAARRRSRALGTEGRHLLAPATERSSLSLHSLSEGDDARPPGPLACKRPPSPTLQHAASEDNLSSSTGEAPSRAVGHHGDGPRPWLRGQKKSLGKKREESLEAKRRKRRSRSFEVTGQGLSHPKTHLLGPHQAERISDHRMPVCRHPAPGIRHLGKVTLPLAKVKLPPSQNTGPGDSSPLAVPPNPGGGSRRATRGPRLPHGTSTHGKDGCSRHN
B1 was tested, and the “microtubule depolymerization in vitro (TIRF time series, 5 minutes)” value was “Kif-19 depolymerizes microtubules in vitro”.
